Measured values published in publication PMC9279154 (Nature, 2022).

B1: His-tagged Loqs-PD, wild type [Drosophila melanogaster] / Drosophila melanogaster Dicer-2 (Dcr-2), wild type [Drosophila melanogaster] (parent complex)
chain 1: MDQENFHGSSLPQQLQNLHIQPQQASPNPVQTGFAPRRHYNNLVGLGNGNAVSGSPVKGAPLGQRHVKLKKEKISAQVAQLSQPGQLQLSDVGDPALAGGSGLQGGVGLMGVILPSDEALKFVSETDANGLAMKTPVSILQELLSRRGITPGYELVQIEGAIHEPTFRFRVSFKDKDTPFTAMGAGRSKKEAKHAAARALIDKLIGAQLPESPSSSAGPSVTGLTVAGSGGDGNANATGGGDASDKTVGNPIGWLQEMCMQRRWPPPSYETETEVGLPHERLFTIACSILNYREMGKGKSKKIAKRLAAHRMWMRLQETPIDSGKISDSICGELEGEVSIIQDIDRYEQVSKDFEFIKI
chain 2: MEDVEIKPRGYQLRLVDHLTKSNGIVYLPTGSGKTFVAILVLKRFSQDFDKPIESGGKRALFMCNTVELARQQAMAVRRCTNFKVGFYVGEQGVDDWTRGMWSDEIKKNQVLVGTAQVFLDMVTQTYVALSSLSVVIIDECHHGTGHHPFREFMRLFTIANQTKLPRVVGLTGVLIKGNEITNVATKLKELEITYRGNIITVSDTKEMENVMLYATKPTEVMVSFPHQEQVLTVTRLISAEIEKFYVSLDLMNIGVQPIRRSKSLQCLRDPSKKSFVKQLFNDFLYQMKEYGIYAASIAIISLIVEFDIKRRQAETLSVKLMHRTALTLCEKIRHLLVQKLQDMTYDDDDDNVNTEEVIMNFSTPKVQRFLMSLKVSFADKDPKDICCLVFVERRYTCKCIYGLLLNYIQSTPELRNVLTPQFMVGRNNISPDFESVLERKWQKSAIQQFRDGNANLMICSSVLEEGIDVQACNHVFILDPVKTFNMYVQSKGRARTTEAKFVLFTADKEREKTIQQIYQYRKAHNDIAEYLKDRVLEKTEPELYEIKGHFQDDIDPFTNENGAVLLPNNALAILHRYCQTIPTDAFGFVIPWFHVLQEDERDRIFGVSAKGKHVISINMPVNCMLRDTIYSDPMDNVKTAKISAAFKACKVLYSLGELNERFVPKTLKERVASIADVHFEHWNKYGDSVTATVNKADKSKDRTYKTECPLEFYDALPRVGEICYAYEIFLEPQFESCEYTEHMYLNLQTPRNYAILLRNKLPRLAEMPLFSNQGKLHVRVANAPLEVIIQNSEQLELLHQFHGMVFRDILKIWHPFFVLDRRSKENSYLVVPLILGAGEQKCFDWELMTNFRRLPQSHGSNVQQREQQPAPRPEDFEGKIVTQWYANYDKPMLVTKVHRELTPLSYMEKNQQDKTYYEFTMSKYGNRIGDVVHKDKFMIEVRDLTEQLTFYVHNRGKFNAKSKAKMKVILIPELCFNFNFPGDLWLKLIFLPSILNRMYFLLHAEALRKRFNTYLNLHLLPFNGTDYMPRPLEIDYSLKRNVDPLGNVIPTEDIEEPKSLLEPMPTKSIEASVANLEITEFENPWQKYMEPVDLSRNLLSTYPVELDYYYHFSVGNVCEMNEMDFEDKEYWAKNQFHMPTGNIYGNRTPAKTNANVPALMPSKPTVRGKVKPLLILQKTVSKEHITPAEQGEFLAAITASSAADVFDMERLEILGDSFLKLSATLYLASKYSDWNEGTLTEVKSKLVSNRNLLFCLIDADIPKTLNTIQFTPRYTWLPPGISLPHNVLALWRENPEFAKIIGPHNLRDLALGDEESLVKGNCSDINYNRFVEGCRANGQSFYAGADFSSEVNFCVGLVTIPNKVIADTLEALLGVIVKNYGLQHAFKMLEYFKICRADIDKPLTQLLNLELGGKKMRANVNTTEIDGFLINHYYLEKNLGYTFKDRRYLLQALTHPSYPTNRITGSYQELEFIGDAILDFLISAYIFENNTKMNPGALTDLRSALVNNTTLACICVRHRLHFFILAENAKLSEIISKFVNFQESQGHRVTNYVRILLEEADVQPTPLDLDDELDMTELPHANKCISQEAEKGVPPKGEFNMSTNVDVPKALGDVLEALIAAVYLDCRDLQRTWEVIFNLFEPELQEFTRKVPINHIRQLVEHKHAKPVFSSPIVEGETVMVSCQFTCMEKTIKVYGFGSNKDQAKLSAAKHALQQLSKCDA

Variants of: B1
Assay: pull-down; parent: 1; read off a plot

Question: Which ratio to parent does the source give for chain 1 MDQENFHGSSLPQQLQNLHIQPQQASPNPVQTGFAPRRHYNNLVGLGNGNAVSGSPVKGAPLGQRHVKLKKEKISAQVAQLSQPGQLQLSDVGDPALAGGSGLQGGVGLMGVILPSDEALKFVSETDANGLAMKTPVSILQELLSRRGITPGYELVQIEGAIHEPTFRFRVSFKDKDTPFTAMGAGRSKKEAKHAAARALIDKLIGAQLPESPSSSAGPSVTGLTVAGSGGDGNANATGGGDASDKTVGNPIGWLQEMCMQRRWPPPSYETETEVGLPHERLFTIACSILNYREMGKGKSKKIAKRLAAHRMWMRLQETPIDSGKISDSICGELEGEVSIIQDIDRYEQVSKDFEFIKD [chain 1 I359D] here?
Answer: ~0.04

Question: How did the ratio to parent turn out when chain 1 MDQENFHGSSLPQQLQNLHIQPQQASPNPVQTGFAPRRHYNNLVGLGNGNAVSGSPVKGAPLGQRHVKLKKEKISAQVAQLSQPGQLQLSDVGDPALAGGSGLQGGVGLMGVILPSDEALKFVSETDANGLAMKTPVSILQELLSRRGITPGYELVQIEGAIHEPTFRFRVSFKDKDTPFTAMGAGRSKKEAKHAAARALIDKLIGAQLPESPSSSAGPSVTGLTVAGSGGDGNANATGGGDASDKTVGNPIGWLQEMCMQRRWPPPSYETETEVGLPHERLFTIACSILNYREMGKGKSKKIAKRLAAHRMWMRLQETPIDSGKISDSICGELEGEVSIIQDIDRAEQVSKDFEFIKI [chain 1 Y347A] was run?
Answer: ~0.1

Question: chain 1 MDQENFHGSSLPQQLQNLHIQPQQASPNPVQTGFAPRRHYNNLVGLGNGNAVSGSPVKGAPLGQRHVKLKKEKISAQVAQLSQPGQLQLSDVGDPALAGGSGLQGGVGLMGVILPSDEALKFVSETDANGLAMKTPVSILQELLSRRGITPGYELVQIEGAIHEPTFRFRVSFKDKDTPFTAMGAGRSKKEAKHAAARALIDKLIGAQLPESPSSSAGPSVTGLTVAGSGGDGNANATGGGDASDKTVGNPIGWLQEMCMQRRWPPPSYETETEVGLPHERLFTIACSILNYREMGKGKSKKIAKRLAAHRMWMRLQETPIDSGKISDSICGELEGEVSIIQDIDRYEQVSKDFEDIKI [chain 1 F356D] was tested. Which ratio to parent did it give?
Answer: ~0.06
